Measurements taken from patent US20220305133A1 (CSL INNOVATION, published 2022).
Values belong to the binder of their own block, whether it stands above or below them.

Assays:
[1] = molecular target: T1, murine G-CSF receptor (G-CSFR) on mouse NFS-60 cells (mouse, UniProt P40223 26-837); assay: cell-based or functional assay
T1 sequence (looked up): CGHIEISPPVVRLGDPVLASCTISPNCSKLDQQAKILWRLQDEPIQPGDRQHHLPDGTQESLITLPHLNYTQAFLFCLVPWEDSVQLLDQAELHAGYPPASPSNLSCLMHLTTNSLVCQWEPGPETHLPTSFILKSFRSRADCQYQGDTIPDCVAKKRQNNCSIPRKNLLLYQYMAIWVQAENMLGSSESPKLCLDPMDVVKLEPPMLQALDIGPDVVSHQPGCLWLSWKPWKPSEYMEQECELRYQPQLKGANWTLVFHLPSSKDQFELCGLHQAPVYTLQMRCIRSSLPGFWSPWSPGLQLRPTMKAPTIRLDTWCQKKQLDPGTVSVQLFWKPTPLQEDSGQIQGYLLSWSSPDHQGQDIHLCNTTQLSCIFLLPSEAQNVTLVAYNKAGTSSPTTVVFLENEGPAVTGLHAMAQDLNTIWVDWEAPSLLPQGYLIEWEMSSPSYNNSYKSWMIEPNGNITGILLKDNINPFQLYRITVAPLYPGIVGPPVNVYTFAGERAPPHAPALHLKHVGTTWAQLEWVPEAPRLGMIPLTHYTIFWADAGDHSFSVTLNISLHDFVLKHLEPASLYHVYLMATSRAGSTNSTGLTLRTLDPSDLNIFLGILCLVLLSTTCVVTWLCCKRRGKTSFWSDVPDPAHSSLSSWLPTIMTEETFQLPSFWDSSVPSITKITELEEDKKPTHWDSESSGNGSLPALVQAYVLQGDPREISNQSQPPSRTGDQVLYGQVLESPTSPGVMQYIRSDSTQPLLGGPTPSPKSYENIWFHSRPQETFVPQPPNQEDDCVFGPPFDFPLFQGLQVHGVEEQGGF

[2] = molecular target: T2, Factor XIIa (activated Factor XII) (UniProt P00748 20-615, limits assumed); assay: cell-based or functional assay
T2 sequence (looked up): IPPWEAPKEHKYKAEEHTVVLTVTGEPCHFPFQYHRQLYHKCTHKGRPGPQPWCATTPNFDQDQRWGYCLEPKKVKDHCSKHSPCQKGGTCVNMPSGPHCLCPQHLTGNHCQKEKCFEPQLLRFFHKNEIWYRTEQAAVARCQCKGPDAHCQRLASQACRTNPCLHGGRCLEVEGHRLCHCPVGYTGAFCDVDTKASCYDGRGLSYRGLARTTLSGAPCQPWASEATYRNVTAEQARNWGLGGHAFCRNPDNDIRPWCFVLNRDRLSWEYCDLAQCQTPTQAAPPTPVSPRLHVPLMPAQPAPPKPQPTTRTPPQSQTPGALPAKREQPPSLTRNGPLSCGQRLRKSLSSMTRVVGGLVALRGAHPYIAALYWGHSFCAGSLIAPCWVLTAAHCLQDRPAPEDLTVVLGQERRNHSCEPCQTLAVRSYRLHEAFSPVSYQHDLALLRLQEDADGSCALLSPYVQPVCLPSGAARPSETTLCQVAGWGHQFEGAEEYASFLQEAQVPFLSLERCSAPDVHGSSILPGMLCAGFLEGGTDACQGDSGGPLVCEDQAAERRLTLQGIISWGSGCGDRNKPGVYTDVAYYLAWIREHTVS

IC50 (nM), inhibition of mG-CSF-dependent proliferation of mouse NFS-60 cells, stimulated with 0.1 ng/ml mG-CSF [1]: 0.00104 nM
IC50 (nM), inhibition of mG-CSF-dependent proliferation of mouse NFS-60 cells, stimulated with 1.0 ng/ml mG-CSF [1]: 0.00323 nM
B1: VR81, mouse monoclonal IgG1κ antibody against the extracellular domain of murine G-CSFR (antibody, V domains shown)
VH: EVQLLESGGGLVQPGGSLRLSCAASGFTFSYYAMWWVRQAPGKGLEWVSLIDVSGGVQLYADSVKGRFTISRDNSKNTLYLQMNSLRAEDTAVYYCAKPLIGTRDAFDIWGQGTMVTVSS
VL: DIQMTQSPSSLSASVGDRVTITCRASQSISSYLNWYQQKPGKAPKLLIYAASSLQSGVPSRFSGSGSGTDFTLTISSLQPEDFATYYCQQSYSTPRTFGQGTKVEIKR

IC50 (nM), chromogenic assay of Factor XIIa activity [2]: 17.2 nM
B2: ch3F7-mG1L-aFXII (3F7) (antibody, V domains shown)
VH: EVQLLESGGGLVQPGGSLRLSCAASGFTFSKYIMQWVRQAPGKGLEWVSGIRPSGGTTVYADSVKGRFTISRDNSKNTLYLQMNSLRAEDTAVYYCARALPRSGYLISPHYYYYALDVWGQGTTVTVSS
VL: QSELTQPPSASGTPGQRVTISCSGSSSNIGRNYVYWYQQVPGTAPKLLIYSNNQRPSGVPDRFSGSKSGTSASLVISGLRSEDEADYYCAAWDASLRGVFGGGTKLTVLG
